Assay results as given in US20110189730 (published 2011).

T1: Sin Nombre hantavirus nucleocapsid protein (N) (Sin Nombre hantavirus) (UniProt Q89462)
T1 sequence: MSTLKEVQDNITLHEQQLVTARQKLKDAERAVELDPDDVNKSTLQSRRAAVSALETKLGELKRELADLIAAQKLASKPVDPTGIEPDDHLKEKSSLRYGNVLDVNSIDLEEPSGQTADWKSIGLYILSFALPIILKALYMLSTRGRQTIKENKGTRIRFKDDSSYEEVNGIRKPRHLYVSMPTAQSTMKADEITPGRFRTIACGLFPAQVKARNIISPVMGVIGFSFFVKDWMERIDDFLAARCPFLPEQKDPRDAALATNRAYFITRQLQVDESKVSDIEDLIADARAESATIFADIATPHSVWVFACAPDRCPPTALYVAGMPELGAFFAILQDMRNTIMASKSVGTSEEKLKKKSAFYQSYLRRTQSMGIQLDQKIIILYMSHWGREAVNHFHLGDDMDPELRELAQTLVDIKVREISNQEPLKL

T2: Sin Nombre hantavirus nucleocapsid protein (N) (Sin Nombre hantavirus, UniProt Q89462 SEQ:1-428)
T2 sequence: T1 sequence


Assays:
[1] = biological target: T1, Sin Nombre hantavirus nucleocapsid protein (N) (Sin Nombre hantavirus); assay: filter; conditions: 5' m7G cap
[2] = biological target: T2, Sin Nombre hantavirus nucleocapsid …; assay: filter; conditions: tags: C-terminal octahistidine tag, expressed in E. coli; label: 32P-CTP

Molecule | Kd [1] [nM] | Kd [2] [nM]
capped TriEx 5'-terminal decamer | 130 | 
GUCUCC (ssRNA, 5' m7G cap) [m7GUCUCC capped hexamer] |  | 125
GUCUCUCCCA (ssRNA, 5' m7G cap) [m7… capped decamer] |  | ~130
